Tested on: Escherichia coli TOP10
Test: shrunken log2 fold change of peptide-encoding DNA abundance (4.5 h post-induction vs induction); higher = less antimicrobial activity (less host growth inhibition)
Conditions: time post-induction: 4.5 h; library: site-saturation at positions 5, 18, 19, 20
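Note: peptides expressed intracellularly from a pBAD plasmid library in pooled LB shake-flask culture, induced with 0.3% L-arabinose, DNA abundance read by NGS, three biological replicates, DESeq2 with apeglm shrinkage.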

Sequence	shrunken log2 fold change
RRIRTRPPRLPRPRPRPTSRPRP	0.141
RRIRKRPPRLPRPRPRPKYVPRP	0.0381
RRIRDRPPRLPRPRPRPTGWPRP	1.21
RRIRFRPPRLPRPRPRPDPVPRP	0.227
RRIRPRPPRLPRPRPRPHLGPRP	0.088
RRIRDRPPRLPRPRPRPARCPRP	0.446
RRIRDRPPRLPRPRPRPRFNPRP	0.858
RRIRVRPPRLPRPRPRPYEEPRP	-0.128
RRIRDRPPRLPRPRPRPQRWPRP	0.287
RRIRNRPPRLPRPRPRPPRDPRP	0.499
RRIRKRPPRLPRPRPRPTEPPRP	-0.0305
RRIRNRPPRLPRPRPRPLSAPRP	-0.097
RRIRKRPPRLPRPRPRPMFHPRP	-0.144
RRIRPRPPRLPRPRPRPCLKPRP	-0.0625
RRIRHRPPRLPRPRPRPLFIPRP	-0.68
RRIRIRPPRLPRPRPRPRKTPRP	0.13
RRIRARPPRLPRPRPRPDSKPRP	0.149
RRIRQRPPRLPRPRPRPNVQPRP	0.031
RRIRFRPPRLPRPRPRPWVDPRP	-0.608
RRIRQRPPRLPRPRPRPDTGPRP	-0.0117
RRIRVRPPRLPRPRPRPLWKPRP	-0.0321
RRIRVRPPRLPRPRPRPAGRPRP	1.22
RRIRNRPPRLPRPRPRPMHLPRP	-0.179
RRIRFRPPRLPRPRPRPAYGPRP	-0.41
RRIRWRPPRLPRPRPRPWLRPRP	0.0741

Sequence	shrunken log2 fold change
RRIRTRPPRLPRPRPRPPWYPRP	-0.166
RRIRARPPRLPRPRPRPMFWPRP	0.19
RRIRWRPPRLPRPRPRPIHAPRP	0.0364
RRIRDRPPRLPRPRPRPMLSPRP	4.44e-05
RRIRKRPPRLPRPRPRPTAVPRP	0.284
RRIRPRPPRLPRPRPRPLWKPRP	0.0546
RRIRLRPPRLPRPRPRPKSMPRP	-0.0449
RRIRNRPPRLPRPRPRPDPMPRP	-0.177
RRIRLRPPRLPRPRPRPQRDPRP	0.231
RRIRTRPPRLPRPRPRPIHKPRP	-0.281
RRIRQRPPRLPRPRPRPRRVPRP	0.252
RRIRMRPPRLPRPRPRPEGQPRP	-0.00185
RRIRTRPPRLPRPRPRPKVHPRP	-0.429
RRIRTRPPRLPRPRPRPRSDPRP	0.0841
RRIRERPPRLPRPRPRPFGVPRP	0.00331
RRIRLRPPRLPRPRPRPSRIPRP	-0.15
RRIRWRPPRLPRPRPRPYPCPRP	-0.105
RRIRYRPPRLPRPRPRPYAFPRP	-0.0129
RRIRTRPPRLPRPRPRPFNIPRP	-0.333
RRIRPRPPRLPRPRPRPHRDPRP	-0.0367
RRIRSRPPRLPRPRPRPPQVPRP	-0.0457
RRIRWRPPRLPRPRPRPWWNPRP	-0.0562
RRIRCRPPRLPRPRPRPKVVPRP	-0.0915
RRIRGRPPRLPRPRPRPQMIPRP	1.83
RRIRPRPPRLPRPRPRPSGEPRP	0.126
